Measured values reported in publication PMC3928677 (Science (New York, N.Y.), 2013).
Several values for one entry are separate records, joined by “and”; a condition that tells them apart may be missing. Identical values can stand only once. Like-named read-outs stand apart in the source and are kept apart here.

T1: RseB (Escherichia coli, UniProt P0AFX9)
T1 sequence (P0AFX9 24-318): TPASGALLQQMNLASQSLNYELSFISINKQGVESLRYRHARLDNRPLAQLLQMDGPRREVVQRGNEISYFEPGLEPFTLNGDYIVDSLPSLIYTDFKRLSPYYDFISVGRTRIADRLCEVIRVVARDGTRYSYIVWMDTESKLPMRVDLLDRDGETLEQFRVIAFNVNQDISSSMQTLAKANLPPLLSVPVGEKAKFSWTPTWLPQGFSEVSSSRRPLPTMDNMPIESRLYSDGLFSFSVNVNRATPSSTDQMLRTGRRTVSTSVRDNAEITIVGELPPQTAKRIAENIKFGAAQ


How the values were obtained:
RseB = target: T1, RseB; assay: fluorescence anisotropy, displacement of fluorescent RseA^P; format: binding
SEC [1] = target: the molecule itself; assay: SEC
SEC [2] = target: the molecule itself; assay: SEC; remark: listed apart in the source

Molecule | EC50 (RseB) [µM] | stoichiometry N (SEC [1]) | stoichiometry N (SEC [2])
CCCCCCCCCCC[C@@H](O)CC(=O)N[C@H]1[C@H](OC[C@H]2O[C@H](OP(=O)(O)O)[C@H](NC(=O)C[C@H](O)CCCCCCCCCCC)[C@@H](O)[C@@H]2O)O[C@H](CO)[C@@H](OP(=O)(O)O)[C@@H]1O [L-IIA] | ~65 |  | 
MucB (natural protein, Pseudomonas aeruginosa, UniProt P38108 22-316, looked up, 35S label (in the elution assay from MucA^P-agarose only)) ADASDWLNRLAEADRQNSFQGTFVYERNGSFSTHEIWHRVESDGAVRERLLQLDGARQEVVRVDGRTQCISGGLADQLADAQLWPVRKFDPSQLASWYDLRLVGESRVAGRPAVVLAVTPRDQHRYGFELHLDRDTGLPLKSLLLNEKGQLLERFQFTQLNTGAAPAEDQLQAGAECQVVGPAKADGEKTVAWRSEWLPPGFTLTRSFMRRSPVTPDPVACLTYGDGLARFSVFIEPLHGAMVGDARSQLGPTVVVSKRLQTDDGGQMVTVVGEVPLGTAERVALSIRPEAAAQK |  | 4 and 2 | 
RseB (natural protein, E. coli, UniProt P0AFX9 24-318, looked up, 35S label (in the elution assay from RseA^P-agarose only)) TPASGALLQQMNLASQSLNYELSFISINKQGVESLRYRHARLDNRPLAQLLQMDGPRREVVQRGNEISYFEPGLEPFTLNGDYIVDSLPSLIYTDFKRLSPYYDFISVGRTRIADRLCEVIRVVARDGTRYSYIVWMDTESKLPMRVDLLDRDGETLEQFRVIAFNVNQDISSSMQTLAKANLPPLLSVPVGEKAKFSWTPTWLPQGFSEVSSSRRPLPTMDNMPIESRLYSDGLFSFSVNVNRATPSSTDQMLRTGRRTVSTSVRDNAEITIVGELPPQTAKRIAENIKFGAAQ |  | 4 | 2
